Assay results as given in publication PMC8983717, “Cryo-EM structures of a LptDE transporter in complex with Pro-macrobodies offer insight into lipopolysaccharide translocation” (Nature Communications, 2022).

Assays:
[1] = biological target: T1, N. gonorrhoeae LptD (1-801)-3C-His10 and LptE (1-159)-AVI complex, biotinylated (Neisseria gonorrhoeae ATCC 700825 / FA …, UniProt Q5F651;Q5F9V6, biotin on the AVI tag (in vitro, BirA)); assay: grating-coupled interferometry (GCI); biotinylated NgLptDE immobilised on a 4PCP-S (streptavidin) chip at 600-700 pg/mm2; 20 °C; Tris 25 mM pH 7.5, NaCl 300 mM, DDM 0.1%; 8 concentrations (2-fold dilutions) in duplicate; 1:1 model; conditions: both partners purified
T1 construct: signal peptide in the construct; LptD of N. gonorrhoeae (Zopf) Trevisan (ATCC 700825), residues 1-801; LptE of N. gonorrhoeae (Zopf) Trevisan (ATCC 700825), residues 1-159; Used for sybody generation and GCI; also called biotinylated NgLptDE; Biotinylated protein; source: E. coli SF100, purified as the NgLptDE complex, biotinylated in vitro with BirA, second SEC; monomeric peak; not shown: AVI, …

[2] = biological target: the molecule itself; assay: cryo-EM structure; subset of 80,140 dimeric particles of the NgLptDE-PMb51-PMb21 sample; map at 5.27 Å; pseudo-2-fold symmetry

B1: sybody 51 (Sb51), synthetic nanobody against NgLptDE (VHH)
VHH: QVQLVESGGGSVQAGGSLRLSCAASGSISSITYLGWFRQAPGKEREGVAALATYYGHTYYADSVKGRFTVSLDNAKNTVYLQMNSLKPEDTALYYCAAAYSGIWTPLGVWATYEYWGQGTQVTV
notes: as the sybody moiety of m6 (PMb51), PDB 7OMM, up to the conserved C-terminus VTV
- binding result [1]: binds

B2: Neisseria gonorrhoeae LptDE complex (NgLptDE), wild-type full-length LptD and LptE with a C-terminal hexa-histidine tag (complex, N. gonorrhoeae)
chain 1: ADTVAAEEADGRVAEGGAQGASESAQASDLTLGSTCLFCSNESGSPERTEAAVQGSGEASVPEDYTRIVADRMEGQSKVKVRAEGSVIIERDGAVLNTDWADYDQSGDTVTVGDRFALQQDGTLIRGETLTYNLDQQTGEAHNVRMETEQGGRRLQSVSRTAEMLGEGRYKLTETQFNTCSAGDAGWYVKAASVEADRGKGIGVAKHAAFVFGGVPLFYTPWADFPLDGNRKSGLLVPSVSAGSDGVSLSVPYYFNLAPNFDATFAPGIIGERGATFDGQIRYLRPDYSGQTDLTWLPHDKKSGRNNRYQAKWQHRHDISDTLQAGVDFNQVSDSGYYRDFYGGEEIAGNVNLNRRVWLDYGGRAAGGSLNAGLSVQKYQTLANQSGYKDEPYAIMPRLSADWHKNAGRAQIGVSAQFTRFSHDGRQDGSRLVVYPGIKWDFSNSWGYVRPKLGLHATYYSLDSFGGKASRSVGRVLPVVNIDGGTTFERNTRLFGGGVVQTIEPRLFYNYIPAKSQNDLPNFDSSESSFGYGQLFRENLYYGNDRINAANSLSTAVQSRILDGATGEERFRAGIGQKFYFKDDAVMLDGSVGKNPRSRSDWVAFASGGIGGRFTLDSSIHYNQNDKRAEHYAVGAGYRPAPGKVLNARYKYGRNEKIYLQADGSYFYDKLSQLDLSAQWPLTRNLSAVVRYNYGFEAKKPIEMLAGAEYKSSCGCWGAGVYAQRYVTGENTYKNAVFFSLQLKDLSSVGRNPAGRMDVAVPGYIPAHSLSAGRNKRP
chain 2: CGFHLKGADGISPPLTYRSWHIEGGQALQFPLETALYQASGRVDDAAGAQMTLRIDSVSQNKETYTVTRAAVINEYLLILTVEAQVLKRGEPVGKPMTVSVRRILDYADNEILGKQEEEETLWAEMRQDVAEQIVRRLTFLKAE
notes: LptD of N. gonorrhoeae, wild-type full length, UniProt Q5F651; LptE of N. gonorrhoeae, UniProt Q5F9V6; it is put on LptE here; Monomeric and dimeric SEC peaks were kept apart; the monomer was used for the complexes with PMbs; also called LptDE transporter; source: E. coli SF100, pBAD22A, purified from the outer-membrane fraction (LDAO, NiNTA, exchange to LMNG, SEC); also on E. coli SF100 cells …
- stoichiometry N [2]: 2

B3: N. gonorrhoeae LptD (NgLptD), as the chain of the purified NgLptDE complex (natural protein, UniProt Q5F651 24-801, looked up)
chain: B2 chain 1
notes: LptD of N. gonorrhoeae, wild-type full length, UniProt Q5F651; The LptD chain of m1; source: E. coli SF100, co-expressed with LptE, purified as the NgLptDE complex (NiNTA, SEC, LMNG)
- binding result [2]: binds
